Source: publication PMC2635478 (Traffic (Copenhagen, Denmark), 2008)
Like-named read-outs stand apart in the source and are kept apart here.

Assays:
SEC [1] = molecular target: the molecule itself; assay: SEC
SEC [2] = molecular target: the molecule itself; assay: SEC; remark: listed apart in the source

Protein | stoichiometry N (SEC [1]) | stoichiometry N (SEC [2])
NEM-modified PITPβ (phosphatidylinositol transfer protein beta) in cytosol of NEM-treated HL60 cells (natural protein, human (endogenous in HL60), UniProt P48739 1-271, looked up, C95 alkylated by N-ethylmaleimide (NEM)) MVLIKEFRVVLPCSVQEYQVGQLYSVAEASKNETGGGEGIEVLKNEPYEKDGEKGQYTHKIYHLKSKVPAFVRMIAPEGSLVFHEKAWNAYPYCRTIVTNEYMKDDFFIKIETWHKPDLGTLENVHGLDPNTWKTVEIVHIDIADRSQVEPADYKADEDPALFQSVKTKRGPLGPNWKKELANSPDCPQMCAYKLVTIKFKWWGLQSKVENFIQKQEKRIFTNFHRQLFCWIDKWIDLTMEDIRRMEDETQKELETMRKRGSVRGTSAADV | 2 | 
NEM-modified PITPβ (phosphatidylinositol transfer protein beta) in cytosol of NEM-treated PC12 cells (natural protein, rat (endogenous in PC12), UniProt P53812 1-271, looked up, C95 alkylated by N-ethylmaleimide (NEM)) MVLIKEFRVVLPCSVQEYQVGQLYSVAEASKNETGGGEGIEVLKNEPYENDGEKGQYTHKIYHLKSKVPAFVRMIAPEGSLVFHEKAWNAYPYCRTIVTNEYMKDDFFIKIETWHKPDLGTLENVHGLDPNTWKTVEIVHIDIADRSQVEPADYKADEDPALFQSVKTKRGPLGPNWKKELANTPDCPKMCAYKLVTIKFKWWGLQSKVENFIQKQEKRIFTNLHRQLFCWIDKWIDLTMEDIRRMEDETQKELETMRKKGSVRGTSAADA |  | 2
